# Test results: US8748182B2, “Mutant proteins and methods for producing them” (Heptares Therapeutics Limited, priority 2007, dated 2014)
# B1: A86L: NTR point mutant (protein, UniProt P20789 1-424, looked up, variant A86L)
# Neurotensin receptor type 1: MHLNSSVPQGTPGEPDAQPFSGPQSEMEATFLALSLSNGSGNTSESDTAGPNSDLDVNTDIYSKVLVTAIYLALFVVGTVGNSVTLFTLARKKSLQSLQSTVHYHLGSLALSDLLILLLAMPVELYNFIWVHHPWAFGDAGCRGYYFLRDACTYATALNVASLSVERYLAICHPFKAKTLMSRSRTKKFISAIWLASALLAIPMLFTMGLQNRSGDGTHPGGLVCTPIVDTATVKVVIQVNTFMSFLFPMLVISILNTVIANKLTVMVHQAAEQGRVCTVGTHNGLEHSTFNMTIEPGRVQALRHGVLVLRAVVIAFVVCWLPYHVRRLMFCYISDEQWTTFLFDFYHYFYMLTNALFYVSSAINPILYNLVSANFRQVFLSTLACLCPGWRHRRKKRPTFSRKPNSMSSNHAFSTSATRETLY
# B2: A177L: NTR point mutant (protein, UniProt P20789 1-424, looked up, variant A177L)
# Neurotensin receptor type 1: MHLNSSVPQGTPGEPDAQPFSGPQSEMEATFLALSLSNGSGNTSESDTAGPNSDLDVNTDIYSKVLVTAIYLALFVVGTVGNSVTAFTLARKKSLQSLQSTVHYHLGSLALSDLLILLLAMPVELYNFIWVHHPWAFGDAGCRGYYFLRDACTYATALNVASLSVERYLAICHPFKLKTLMSRSRTKKFISAIWLASALLAIPMLFTMGLQNRSGDGTHPGGLVCTPIVDTATVKVVIQVNTFMSFLFPMLVISILNTVIANKLTVMVHQAAEQGRVCTVGTHNGLEHSTFNMTIEPGRVQALRHGVLVLRAVVIAFVVCWLPYHVRRLMFCYISDEQWTTFLFDFYHYFYMLTNALFYVSSAINPILYNLVSANFRQVFLSTLACLCPGWRHRRKKRPTFSRKPNSMSSNHAFSTSATRETLY
# B3: A385L: NTR point mutant (protein, UniProt P20789 1-424, looked up, variant A385L)
# Neurotensin receptor type 1: MHLNSSVPQGTPGEPDAQPFSGPQSEMEATFLALSLSNGSGNTSESDTAGPNSDLDVNTDIYSKVLVTAIYLALFVVGTVGNSVTAFTLARKKSLQSLQSTVHYHLGSLALSDLLILLLAMPVELYNFIWVHHPWAFGDAGCRGYYFLRDACTYATALNVASLSVERYLAICHPFKAKTLMSRSRTKKFISAIWLASALLAIPMLFTMGLQNRSGDGTHPGGLVCTPIVDTATVKVVIQVNTFMSFLFPMLVISILNTVIANKLTVMVHQAAEQGRVCTVGTHNGLEHSTFNMTIEPGRVQALRHGVLVLRAVVIAFVVCWLPYHVRRLMFCYISDEQWTTFLFDFYHYFYMLTNALFYVSSAINPILYNLVSANFRQVFLSTLLCLCPGWRHRRKKRPTFSRKPNSMSSNHAFSTSATRETLY
# B4: M250A: NTR point mutant (protein, UniProt P20789 1-424, looked up, variant M250A)
# Neurotensin receptor type 1: MHLNSSVPQGTPGEPDAQPFSGPQSEMEATFLALSLSNGSGNTSESDTAGPNSDLDVNTDIYSKVLVTAIYLALFVVGTVGNSVTAFTLARKKSLQSLQSTVHYHLGSLALSDLLILLLAMPVELYNFIWVHHPWAFGDAGCRGYYFLRDACTYATALNVASLSVERYLAICHPFKAKTLMSRSRTKKFISAIWLASALLAIPMLFTMGLQNRSGDGTHPGGLVCTPIVDTATVKVVIQVNTFMSFLFPALVISILNTVIANKLTVMVHQAAEQGRVCTVGTHNGLEHSTFNMTIEPGRVQALRHGVLVLRAVVIAFVVCWLPYHVRRLMFCYISDEQWTTFLFDFYHYFYMLTNALFYVSSAINPILYNLVSANFRQVFLSTLACLCPGWRHRRKKRPTFSRKPNSMSSNHAFSTSATRETLY
# B5: 1253A: NTR point mutant (Ile 253) (protein, UniProt P20789 1-424, looked up, variant I253A)
# Neurotensin receptor type 1: MHLNSSVPQGTPGEPDAQPFSGPQSEMEATFLALSLSNGSGNTSESDTAGPNSDLDVNTDIYSKVLVTAIYLALFVVGTVGNSVTAFTLARKKSLQSLQSTVHYHLGSLALSDLLILLLAMPVELYNFIWVHHPWAFGDAGCRGYYFLRDACTYATALNVASLSVERYLAICHPFKAKTLMSRSRTKKFISAIWLASALLAIPMLFTMGLQNRSGDGTHPGGLVCTPIVDTATVKVVIQVNTFMSFLFPMLVASILNTVIANKLTVMVHQAAEQGRVCTVGTHNGLEHSTFNMTIEPGRVQALRHGVLVLRAVVIAFVVCWLPYHVRRLMFCYISDEQWTTFLFDFYHYFYMLTNALFYVSSAINPILYNLVSANFRQVFLSTLACLCPGWRHRRKKRPTFSRKPNSMSSNHAFSTSATRETLY
# B6: 1260A: NTR point mutant (Ile 260) (protein, UniProt P20789 1-424, looked up, variant I260A)
# Neurotensin receptor type 1: MHLNSSVPQGTPGEPDAQPFSGPQSEMEATFLALSLSNGSGNTSESDTAGPNSDLDVNTDIYSKVLVTAIYLALFVVGTVGNSVTAFTLARKKSLQSLQSTVHYHLGSLALSDLLILLLAMPVELYNFIWVHHPWAFGDAGCRGYYFLRDACTYATALNVASLSVERYLAICHPFKAKTLMSRSRTKKFISAIWLASALLAIPMLFTMGLQNRSGDGTHPGGLVCTPIVDTATVKVVIQVNTFMSFLFPMLVISILNTVAANKLTVMVHQAAEQGRVCTVGTHNGLEHSTFNMTIEPGRVQALRHGVLVLRAVVIAFVVCWLPYHVRRLMFCYISDEQWTTFLFDFYHYFYMLTNALFYVSSAINPILYNLVSANFRQVFLSTLACLCPGWRHRRKKRPTFSRKPNSMSSNHAFSTSATRETLY
# B7: R183A: NTR point mutant (protein, UniProt P20789 1-424, looked up, variant R183A)
# Neurotensin receptor type 1: MHLNSSVPQGTPGEPDAQPFSGPQSEMEATFLALSLSNGSGNTSESDTAGPNSDLDVNTDIYSKVLVTAIYLALFVVGTVGNSVTAFTLARKKSLQSLQSTVHYHLGSLALSDLLILLLAMPVELYNFIWVHHPWAFGDAGCRGYYFLRDACTYATALNVASLSVERYLAICHPFKAKTLMSASRTKKFISAIWLASALLAIPMLFTMGLQNRSGDGTHPGGLVCTPIVDTATVKVVIQVNTFMSFLFPMLVISILNTVIANKLTVMVHQAAEQGRVCTVGTHNGLEHSTFNMTIEPGRVQALRHGVLVLRAVVIAFVVCWLPYHVRRLMFCYISDEQWTTFLFDFYHYFYMLTNALFYVSSAINPILYNLVSANFRQVFLSTLACLCPGWRHRRKKRPTFSRKPNSMSSNHAFSTSATRETLY
# B8: Y349A: NTR point mutant (protein, UniProt P20789 1-424, looked up, variant Y349A)
# Neurotensin receptor type 1: MHLNSSVPQGTPGEPDAQPFSGPQSEMEATFLALSLSNGSGNTSESDTAGPNSDLDVNTDIYSKVLVTAIYLALFVVGTVGNSVTAFTLARKKSLQSLQSTVHYHLGSLALSDLLILLLAMPVELYNFIWVHHPWAFGDAGCRGYYFLRDACTYATALNVASLSVERYLAICHPFKAKTLMSRSRTKKFISAIWLASALLAIPMLFTMGLQNRSGDGTHPGGLVCTPIVDTATVKVVIQVNTFMSFLFPMLVISILNTVIANKLTVMVHQAAEQGRVCTVGTHNGLEHSTFNMTIEPGRVQALRHGVLVLRAVVIAFVVCWLPYHVRRLMFCYISDEQWTTFLFDFYHAFYMLTNALFYVSSAINPILYNLVSANFRQVFLSTLACLCPGWRHRRKKRPTFSRKPNSMSSNHAFSTSATRETLY
# B9: H393A: NTR point mutant (protein, UniProt P20789 1-424, looked up, variant H393A)
# Neurotensin receptor type 1: MHLNSSVPQGTPGEPDAQPFSGPQSEMEATFLALSLSNGSGNTSESDTAGPNSDLDVNTDIYSKVLVTAIYLALFVVGTVGNSVTAFTLARKKSLQSLQSTVHYHLGSLALSDLLILLLAMPVELYNFIWVHHPWAFGDAGCRGYYFLRDACTYATALNVASLSVERYLAICHPFKAKTLMSRSRTKKFISAIWLASALLAIPMLFTMGLQNRSGDGTHPGGLVCTPIVDTATVKVVIQVNTFMSFLFPMLVISILNTVIANKLTVMVHQAAEQGRVCTVGTHNGLEHSTFNMTIEPGRVQALRHGVLVLRAVVIAFVVCWLPYHVRRLMFCYISDEQWTTFLFDFYHYFYMLTNALFYVSSAINPILYNLVSANFRQVFLSTLACLCPGWRARRKKRPTFSRKPNSMSSNHAFSTSATRETLY
# B10: C386A: NTR point mutant (protein, UniProt P20789 1-424, looked up, variant C386A)
# Neurotensin receptor type 1: MHLNSSVPQGTPGEPDAQPFSGPQSEMEATFLALSLSNGSGNTSESDTAGPNSDLDVNTDIYSKVLVTAIYLALFVVGTVGNSVTAFTLARKKSLQSLQSTVHYHLGSLALSDLLILLLAMPVELYNFIWVHHPWAFGDAGCRGYYFLRDACTYATALNVASLSVERYLAICHPFKAKTLMSRSRTKKFISAIWLASALLAIPMLFTMGLQNRSGDGTHPGGLVCTPIVDTATVKVVIQVNTFMSFLFPMLVISILNTVIANKLTVMVHQAAEQGRVCTVGTHNGLEHSTFNMTIEPGRVQALRHGVLVLRAVVIAFVVCWLPYHVRRLMFCYISDEQWTTFLFDFYHYFYMLTNALFYVSSAINPILYNLVSANFRQVFLSTLAALCPGWRHRRKKRPTFSRKPNSMSSNHAFSTSATRETLY
# B11: K397A: NTR point mutant (protein, UniProt P20789 1-424, looked up, variant K397A)
# Neurotensin receptor type 1: MHLNSSVPQGTPGEPDAQPFSGPQSEMEATFLALSLSNGSGNTSESDTAGPNSDLDVNTDIYSKVLVTAIYLALFVVGTVGNSVTAFTLARKKSLQSLQSTVHYHLGSLALSDLLILLLAMPVELYNFIWVHHPWAFGDAGCRGYYFLRDACTYATALNVASLSVERYLAICHPFKAKTLMSRSRTKKFISAIWLASALLAIPMLFTMGLQNRSGDGTHPGGLVCTPIVDTATVKVVIQVNTFMSFLFPMLVISILNTVIANKLTVMVHQAAEQGRVCTVGTHNGLEHSTFNMTIEPGRVQALRHGVLVLRAVVIAFVVCWLPYHVRRLMFCYISDEQWTTFLFDFYHYFYMLTNALFYVSSAINPILYNLVSANFRQVFLSTLACLCPGWRHRRKARPTFSRKPNSMSSNHAFSTSATRETLY
# Assay: Thermostability of neurotensin receptor (NTR) mutants (3H-neurotensin binding)
# Format: physicochemical
# Settings: Ligand(+) format
# Method: FIG. 12 Flow chart showing the two different assay formats of ligand (+) and ligand (−) used to determine receptor thermostablity.
# 3. Mutants tested for thermostability by heating in the absence of the agonist were re-tested using a slightly different assay where the mutants were heated in the presence of ^3H-neurotensin (Ligand(+) format in FIG. 12). […] All of these also have increased thermostability. • 5. Preferred combinations are • a. Nag7m F358A+A86L+1260A+F342A Tm 51° C. (neurotensin bound) • b. Nag7n F358A+H103A+1260A+F342A Tm 51° C. (neurotensin bound) • Wildtype NTR has a Tm of 35° C. with neurotensin bound.
row,Molecule,"thermostability, heated in the presence of 3H-neurotensin"
1,B1,improved thermostability
2,B2,improved thermostability
3,B3,improved thermostability
4,B4,improved thermostability
5,B5,improved thermostability
6,B6,improved thermostability
7,B7,improved thermostability

# Same assay, conditions: heated in the absence of the agonist
row,Molecule,"thermostability, 3H-neurotensin (agonist) binding after the heating step"
1,B1,small but significant increase in thermostability
2,B3,small but significant increase in thermostability
3,B8,small but significant increase in thermostability
4,B9,small but significant increase in thermostability
5,B10,small but significant increase in thermostability
6,B11,small but significant increase in thermostability
